From article doi:10.1101/2021.12.23.474050 (bioRxiv, 2021) come the findings set out here.

The target in this experiment is wild-type (WT) RBD of the SARS-CoV-2 spike protein (SARS-CoV-2, UniProt P0DTC2). The experiment in a line: ITC. Background: In ITC the heat of successive injections is recorded.

B1: REGN-10987 ScFv (scFv, V domains shown)
VH: QVQLVESGGGVVQPGRSLRLSCAASGFTFSNYAMYWVRQAPGKGLEWVAVISYDGSNKYYADSVKGRFTISRDNSKNTLYLQMNSLRTEDTAVYYCASGSDYGDYLLVYWGQGTLVTVSS
VL: QSALTQPASVSGSPGQSITISCTGTSSDVGGYNYVSWYQQHPGKAPKLMIYDVSKRPSGVSNRFSGSKSGNTASLTISGLQSEDEADYYCNSLTSISTWVFGGGTKLTVL
In general, Kd refers to the concentration at which binding is half-saturated. Read a low Kd as higher affinity. Molecule B1 returned a Kd of 34.3 ± 8.1 nM.

B2: LY-CoV555 ScFv (scFv, V domains shown)
VH: QVQLVQSGAEVKKPGSSVKVSCKASGGTFSNYAISWVRQAPGQGLEWMGRIIPILGIANYAQKFQGRVTITADKSTSTAYMELSSLRSEDTAVYYCARGYYEARHYYYYYAMDVWGQGTAVTVSS
VL: not shown
B2 gave a Kd of 3.8 ± 1.9 nM.
